Laboratory results reported in patent EP0860700A2.

Target: HSV-1 major capsid protein VP5 (gene product of UL19) (herpes simplex virus type 1 (HSV-1))
Assay: co-immunoprecipitation with VP5 antisera of in vitro translated radiolabeled protein mixed with BAC-VP5 Sf9 extract, SDS-PAGE

For HSV-1 UL15 gene product (75 kD protein), the fold amount co-immunoprecipitated with VP5 against the negative control proteins (HPV-6b E1, HPV-16 E1, HPV-16 E2) was 10 fold.
